The source of these data is publication PMC6182170, “A protein–protein interaction underlies the molecular basis for substrate recognition by an adenosine-to-inosine RNA-editing enzyme”.

For the data set, the target named is T1, ADR-1 dsRBD2 mutant (ds2) (Caenorhabditis elegans, UniProt Q9U3D6 1-964, K584E;K585A;K588A).
T1 sequence: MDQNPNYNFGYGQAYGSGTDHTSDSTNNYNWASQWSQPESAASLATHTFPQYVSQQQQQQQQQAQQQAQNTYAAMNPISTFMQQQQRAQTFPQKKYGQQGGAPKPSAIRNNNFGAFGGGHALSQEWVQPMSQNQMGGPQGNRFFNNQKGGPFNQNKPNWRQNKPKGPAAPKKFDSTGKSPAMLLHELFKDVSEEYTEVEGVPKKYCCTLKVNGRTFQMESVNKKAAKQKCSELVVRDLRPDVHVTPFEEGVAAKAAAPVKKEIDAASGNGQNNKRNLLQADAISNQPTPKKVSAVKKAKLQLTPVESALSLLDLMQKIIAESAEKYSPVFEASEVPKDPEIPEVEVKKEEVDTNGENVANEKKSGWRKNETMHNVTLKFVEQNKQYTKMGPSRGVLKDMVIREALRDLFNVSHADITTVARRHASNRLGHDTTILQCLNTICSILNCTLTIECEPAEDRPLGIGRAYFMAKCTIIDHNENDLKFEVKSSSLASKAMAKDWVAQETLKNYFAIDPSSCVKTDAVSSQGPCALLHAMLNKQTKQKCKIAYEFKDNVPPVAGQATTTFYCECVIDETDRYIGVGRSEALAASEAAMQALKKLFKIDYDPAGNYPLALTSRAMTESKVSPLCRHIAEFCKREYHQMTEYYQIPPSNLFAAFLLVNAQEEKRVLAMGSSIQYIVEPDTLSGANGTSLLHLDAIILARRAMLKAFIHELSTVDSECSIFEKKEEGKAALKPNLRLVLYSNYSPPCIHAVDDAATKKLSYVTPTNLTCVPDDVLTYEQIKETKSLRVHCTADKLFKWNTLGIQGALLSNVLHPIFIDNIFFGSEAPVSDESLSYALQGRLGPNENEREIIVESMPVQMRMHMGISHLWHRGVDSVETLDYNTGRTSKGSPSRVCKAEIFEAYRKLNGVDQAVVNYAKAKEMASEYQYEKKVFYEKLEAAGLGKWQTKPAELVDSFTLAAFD
The data set can be described thus: EMSA; apparent Kd; text calls binding similar to WT; EMSA: 20 pM dsRNA, 50 mM KCl, 10 mM Tris-HCl pH 8.0, 10% glycerol, 1 mM MgCl2, 0.5 mM DTT, on ice 30 min; native 6% gel, 0.5x TBE, 4 C. The conditions noted are these: protein: recombinant; tags: N-terminal 6xHis (TEV site); label: 5' 32P on ssRNAs (PNK); imperfect duplex; printed strands 45 and 46 nt. (In EMSA bound probe runs differently from free probe, usually more slowly.)

B1: lam-2 3'UTR 46 bp dsRNA (dsRNA)
RNA 1: AGACACACAUACAAAAUUUACAAAAAUUGUUAAUUGACAAAAUAC
RNA 2: GUGUUUUGCCAAUUAACGAUUUUUUGUAAAUUUUAUAUGUGUCUCU
Take B1: the Kd was found to be 4.67 ± 0.7 nM.
